T1: human ABCC4 (Homo sapiens, UniProt O15439)
T1 construct: expressed in transfected cells
T1 sequence (O15439 1-1325): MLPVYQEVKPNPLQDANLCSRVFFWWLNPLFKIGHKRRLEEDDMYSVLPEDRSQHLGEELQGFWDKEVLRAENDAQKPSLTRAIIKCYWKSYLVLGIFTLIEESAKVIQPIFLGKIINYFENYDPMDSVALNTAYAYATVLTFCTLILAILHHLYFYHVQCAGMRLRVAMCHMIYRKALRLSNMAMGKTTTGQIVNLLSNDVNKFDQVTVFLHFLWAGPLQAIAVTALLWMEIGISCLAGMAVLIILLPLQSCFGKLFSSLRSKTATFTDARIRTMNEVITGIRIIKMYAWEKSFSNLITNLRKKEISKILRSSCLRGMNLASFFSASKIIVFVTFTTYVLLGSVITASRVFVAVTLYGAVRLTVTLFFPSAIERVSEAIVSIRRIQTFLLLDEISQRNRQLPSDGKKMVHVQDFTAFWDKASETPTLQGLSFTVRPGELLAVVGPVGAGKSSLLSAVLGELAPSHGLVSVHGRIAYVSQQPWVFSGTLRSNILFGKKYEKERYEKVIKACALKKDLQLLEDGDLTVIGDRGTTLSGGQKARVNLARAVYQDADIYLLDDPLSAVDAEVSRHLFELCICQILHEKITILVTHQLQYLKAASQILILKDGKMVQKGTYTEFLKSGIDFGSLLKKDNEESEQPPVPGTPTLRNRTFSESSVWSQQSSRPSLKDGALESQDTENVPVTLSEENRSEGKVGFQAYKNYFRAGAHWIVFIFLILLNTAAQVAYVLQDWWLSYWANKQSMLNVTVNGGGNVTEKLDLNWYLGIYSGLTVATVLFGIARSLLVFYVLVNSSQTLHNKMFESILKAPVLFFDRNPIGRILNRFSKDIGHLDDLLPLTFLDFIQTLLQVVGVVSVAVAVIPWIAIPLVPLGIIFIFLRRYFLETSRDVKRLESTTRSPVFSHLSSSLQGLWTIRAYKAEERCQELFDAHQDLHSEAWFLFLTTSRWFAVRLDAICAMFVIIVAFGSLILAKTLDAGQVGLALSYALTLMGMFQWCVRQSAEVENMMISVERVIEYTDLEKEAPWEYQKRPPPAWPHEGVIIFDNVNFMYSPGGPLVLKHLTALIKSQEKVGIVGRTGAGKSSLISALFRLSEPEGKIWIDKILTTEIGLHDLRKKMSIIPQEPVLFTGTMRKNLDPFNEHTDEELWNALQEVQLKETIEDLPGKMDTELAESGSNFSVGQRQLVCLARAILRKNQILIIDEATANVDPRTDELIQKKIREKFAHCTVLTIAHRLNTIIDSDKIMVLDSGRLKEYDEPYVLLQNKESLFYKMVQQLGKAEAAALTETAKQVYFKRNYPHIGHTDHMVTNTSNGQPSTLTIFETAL


Experiments:
[1] = system: cynomolgus ABCC4; assay: Flow cytometry (FACS) binding to C6 cells stably transfected to express cynomolgus ABCC4 (different experiment, different C6.cC4 cell line, Table 4); design: key to Cynomolgus ABCC4 binding: Negative (−)=Rmax (MFI) below background level; Positive (+)=MFI>3× background level; conditions: for Cynomolgus ABCC4 binding: different C6.cC4 cell line, C6 cells stably transfected to express cynomolgus ABCC4, FACS, Table 4; for binding to cynomolgus ABCC4 expressed on cell surface: Table 4 study, stated in words
Procedure: (§1) Binding titration of recombinant antibodies to ABCC4 transfectants was performed by serial dilution of antibodies from about 666 nM. Diluted antibody in flow cytometry buffer was incubated with cells on ice for 30 min. After 2 washes with flow cytometry buffer, bound antibody was detected with PE-labeled F(ab′)2 fragment goat anti-human IgG (Jackson ImmunoResearch) diluted 1:200 in flow cytometry buffer and incubated with cells for 20 min on ice. After 2 washes with flow cytometry buffer fluorescence was measured on an Attune N×T flow cytometer. Data were analyzed with GraphPad Prism 8.0 software to determine EC50's.
(§2) Human embryonic kidney HEK 293T cells and murine C6 (ATCC CCL-107) were transfected with human or cynomolgus ABCC4 cDNA with C-terminal fused FLAG tag in a pMONO-hygro vector with Lipofectamine 3000 (Invitrogen #L3000001). The cells were treated with 0.2 mg/ml and 0.5 mg/ml hygromycin respectively for about 2 weeks while cultivated in DMEM and 10% FBS with 0.2 mg/ml hygromycin and 0.5 mg/ml hygromycin, respectively. The cells were washed with PBS, and stained with […] of anti-FLAG-PE after fixing and permeablization. Clones expressing ABCC4 were single-cell sorted into 200 μl DMEM with 10% FBS using a BD Aria FACS machine and cultivated in 96 well plates using standard techniques in an incubator at 37° C. and 5% CO 2. Two weeks later clones expressing high levels of ABCC4 were screened and amplified.
(§3) Antibody binding to cells was evaluated by flow cytometry. Murine C6 cells stably transfected to express human or cynomolgus ABCC4 were washed once in flow cytometry buffer (PBS+2% FBS+0.02% sodium azide), resuspended at 2×10^6 cells/mL in flow cytometry buffer, and dispensed into 96-well microtiter plates at 0.1 mL/well. Recombinant antibodies were added to cells at 5 ug/mL for initial binding confirmation, or serially diluted from 100 ug/mL in flow cytometry buffer. After incubating cells on ice for 30 min, cells were washed twice with flow cytometry buffer. Bound antibody was detected with PE-labeled F(ab′)2 fragment goat anti-human IgG (Jackson ImmunoResearch) and evaluated on an Attune N×T flow cytometer. EC50 is calculated to be the concentration of antibody that gives half maximal response.
(§4) In a different experiment, using a different C6.cC4 cell line, detecting the binding of anti-ABCC4 antibodies to C6 cells stably transfected to express human ABCC4 measured by FACS and to C6 cells stably transfected to express cynomolgus ABCC4 measured by FACS, the results set forth in Table 4 were obtained. Negative (−)=Rmax (MFI) below background level. Positive (+)=MFI>3× background level.

[2] = molecular target: T1, human ABCC4; assay: Flow cytometry (FACS) binding to C6 cells stably transfected to express human ABCC4 (different experiment, Table 4); conditions: for Human ABCC4 binding: C6 cells stably transfected to express human ABCC4, FACS, different experiment, Table 4; for binding to human ABCC4 expressed on cell surface: Table 4 study, stated in words
Procedure: as §1, §2, §3, §4

[3] = molecular target: T1, human ABCC4; assay: Flow cytometry (FACS) binding to C6 cells stably transfected to express human ABCC4 (Table 3 study); conditions: for Human ABCC4 binding: C6 cells stably transfected to express human ABCC4, FACS, Table 3; for binding to human ABCC4 expressed on cell surface: Table 3 study, stated in words
Procedure: as §1, §2, §3
(§5) Table 3 lists the following characteristics of the rat anti-ABCC4 antibodies tested: binding to C6 cells stably transfected to express human ABCC4 measured by FACS and binding to C6 cells stably transfected to express cynomolgus ABCC4 measured by FACS. Negative (−) is defined as maximum response (Rmax(MFI)) below background level. Positive (+) is defined as MFI>1000.

[4] = system: cynomolgus ABCC4; assay: Flow cytometry (FACS) binding to C6 cells stably transfected to express cynomolgus ABCC4 (Table 3 study); conditions: for Cynomolgus ABCC4 binding: C6 cells stably transfected to express cynomolgus ABCC4, FACS, Table 3; for binding to cynomolgus ABCC4 expressed on cell surface: Table 3 study, stated in words
Procedure: as §1, §2, §3, §5

Row | Human ABCC4 binding [2] | Human ABCC4 binding [3] | binding to human ABCC4 expressed on cell surface [3] | binding to human ABCC4 expressed on cell surface [2] | Molecule | Cynomolgus ABCC4 binding [1] | binding to cynomolgus ABCC4 expressed on cell surface [1] | Cynomolgus ABCC4 binding [4] | binding to cynomolgus ABCC4 expressed on cell surface [4]
1 | + (Positive (+)=MFI>3× background level) |  |  |  | C4.1155: anti-ABCC4 antibody raised in rats; VH SEQ ID NO: 35, VL SEQ ID NO: 154 (antibody, V domains shown) VH: EVKLLESGGGLVQPGGSLRLSCATSGFSFTDFYMSWIRQPLGKAPEWLGVIRNRAIGFRTEYNPSVKGRFTISRDNTQNILYLQMNTLRTEDTAIYYCARNNLGFDYWGQGASVTVSS VL: TPPSLSVAIGQSVSISCKSSQSLVYSDGKTYLHWLLQISGRSPERLIYQVSNLDSGVPDRFSGTGSQKDFTLKISRVEAKDLGFYYCAQTTHFPYTFGAGTKLELK | − |  |  | 
2 | + (Positive (+)=MFI>3× background level) | + (Positive (+) is defined as MFI>1000) | bind to both human and cynomolgus ABCC4 | bind to both human and cynomolgus ABCC4 | C4.976: anti-ABCC4 antibody raised in rats; VH SEQ ID NO: 12, VL SEQ ID NO: 132 (antibody, V domains shown) VH: EVKLLESGGGLVQPGRSLKVSCVASGFIFSDYYMAWVRQAPTKGLEWVAYINYDGGSTYYGDSVKGRFTISRDNAKSSLYLQMNSLRFEDMATYYCARRDYGSKFDYWGQGVMVTVSS VL: EIVIIQSPALAVSLGQRATISCKTNQNVDYYGNSYIHWYQQKPGQQPKLLIYLASNLASGIPARFSGRGSGTDFTLTIDPVEADDPATYYCQQSRNLPFTFGSGTKLELK | + (Positive (+)=MFI>3× background level) | bind to both human and cynomolgus ABCC4 | + (Positive (+) is defined as MFI>1000) | bind to both human and cynomolgus ABCC4
3 | + (Positive (+)=MFI>3× background level) | + (Positive (+) is defined as MFI>1000) | bind to both human and cynomolgus ABCC4 | bind to both human and cynomolgus ABCC4 | C4.961: anti-ABCC4 antibody raised in rats; VH SEQ ID NO: 9, VL SEQ ID NO: 130 (antibody, V domains shown) VH: EVQLKESGPGLVQPSQTLSLTCAVSGFSLTNYHVHWVRQPPGKGLEWMGVMWSDGDTSYNSALKSRLSISRDTSKSQFFLKMNSLQTEDTATYYCARGGVYFDYWGQGASVTVSS VL: DIVMTQSPSSLAVSAGETVTINCKSSQSLLYSGNQKNSLAWYQQKPGQSPKLLIYWASTRQSGVPDRFIGSGSGTDFTLTFSSVQAEDLAIYYCQHYFDTPYTFGAGTKLELK | + (Positive (+)=MFI>3× background level) | bind to both human and cynomolgus ABCC4 | + (Positive (+) is defined as MFI>1000) | bind to both human and cynomolgus ABCC4
4 | + (Positive (+)=MFI>3× background level) |  |  |  | C4.927: anti-ABCC4 antibody raised in rats; VH SEQ ID NO: 4, VL SEQ ID NO: 127 (antibody, V domains shown) VH: EVQLVESGPGLVQPSRTLSLTCTVSGFSLTSYGVSWVRQPPGKGLEWIAAIWSGGSTDYNSALKSRLSISRDTSKSQVLLKMNSLQTEDTAMYFCARGATEGIDYWGQGASVTVSS VL: AIQVTQSPTSLSASLGDRVTLTCRASQDINNKMAWYQQKPGEVPQLLIYYASTLQSGTPSRFSGSGSGTDFSFTISHLQSEDFATYYCLQGYSLYTFGAGTKLELK | − |  |  | 

Reference: patent US20240010747A1, “ANTI-MRP4 (ENCODED BY ABCC4 GENE) ANTIBODIES AND USES THEREOF” (Kenjockety Biotechnology, Inc., priority 2020, published 2024)
